Experimental data from IntAct's records for PubMed 17170703.

B1: Androgen receptor (Homo sapiens), P10275 (parent)
chain: MEVQLGLGRVYPRPPSKTYRGAFQNLFQSVREVIQNPGPRHPEAASAAPPGASLLLLQQQQQQQQQQQQQQQQQQQQQQQETSPRQQQQQQGEDGSPQAHRRGPTGYLVLDEEQQPSQPQSALECHPERGCVPEPGAAVAASKGLPQQLPAPPDEDDSAAPSTLSLLGPTFPGLSSCSADLKDILSEASTMQLLQQQQQEAVSEGSSSGRAREASGAPTSSKDNYLGGTSTISDNAKELCKAVSVSMGLGVEALEHLSPGEQLRGDCMYAPLLGVPPAVRPTPCAPLAECKGSLLDDSAGKSTEDTAEYSPFKGGYTKGLEGESLGCSGSAAAGSSGTLELPSTLSLYKSGALDEAAAYQSRDYYNFPLALAGPPPPPPPPHPHARIKLENPLDYGSAWAAAAAQCRYGDLASLHGAGAAGPGSGSPSAAASSSWHTLFTAEEGQLYGPCGGGGGGGGGGGGGGGGGGGGGGGEAGAVAPYGYTRPPQGLAGQESDFTAPDVWYPGGMVSRVPYPSPTCVKSEMGPWMDSYSGPYGDMRLETARDHVLPIDYYFPPQKTCLICGDEASGCHYGALTCGSCKVFFKRAAEGKQKYLCASRNDCTIDKFRRKNCPSCRLRKCYEAGMTLGARKLKKLGNLKLQEEGEASSTTSPTEETTQKLTVSHIEGYECQPIFLNVLEAIEPGVVCAGHDNNQPDSFAALLSSLNELGERQLVHVVKWAKALPGFRNLHVDDQMAVIQYSWMGLMVFAMGWRSFTNVNSRMLYFAPDLVFNEYRMHKSRMYSQCVRMRHLSQEFGWLQITPQEFLCMKALLLFSIIPVDGLKNQKFFDELRMNYIKELDRIIACKRKNPTSCSRRFYQLTKLLDSVQPIARELHQFTFDLLIKSHMVSVDFPEMMAEIISVQVPKILSGKVKPIYFHTQ
B2: Caspase-8 (Homo sapiens), Q14790 (parent)
chain: MDFSRNLYDIGEQLDSEDLASLKFLSLDYIPQRKQEPIKDALMLFQRLQEKRMLEESNLSFLKELLFRINRLDLLITYLNTRKEEMERELQTPGRAQISAYRVMLYQISEEVSRSELRSFKFLLQEEISKCKLDDDMNLLDIFIEMEKRVILGEGKLDILKRVCAQINKSLLKIINDYEEFSKERSSSLEGSPDEFSNGEELCGVMTISDSPREQDSESQTLDKVYQMKSKPRGYCLIINNHNFAKAREKVPKLHSIRDRNGTHLDAGALTTTFEELHFEIKPHDDCTVEQIYEILKIYQLMDHSNMDCFICCILSHGDKGIIYGTDGQEAPIYELTSQFTGLKCPSLAGKPKVFFIQACQGDNYQKGIPVETDSEEQPYLEMDLSSPQTRYIPDEADFLLGMATVNNCVSYRNPAEGTWYIQSLCQSLRERCPRGDDILTILTEVNYEVSNKDDKKNMGKQMPQPTFTLRKKLVFPSD

Variants of: B1
Conditions: with casp8_human CASP8, Q14790

Variant | effect of a mutation on the interaction
L26A;F27A | disrupting interaction

Variants of: B2
Conditions: with andr_human AR, P10275

Variant | effect of a mutation on the interaction
MDFSRNLYDIGEQLDSEDLASLKFLSLDYIPQRKQEPIKDALMLAQRLQEKRMLEESNLSFLKELLFRINRLDLLITYLNTRKEEMERELQTPGRAQISAYRVMLYQISEEVSRSELRSFKFLLQEEISKCKLDDDMNLLDIFIEMEKRVILGEGKLDILKRVCAQINKSLLKIINDYEEFSKERSSSLEGSPDEFSNGEELCGVMTISDSPREQDSESQTLDKVYQMKSKPRGYCLIINNHNFAKAREKVPKLHSIRDRNGTHLDAGALTTTFEELHFEIKPHDDCTVEQIYEILKIYQLMDHSNMDCFICCILSHGDKGIIYGTDGQEAPIYELTSQFTGLKCPSLAGKPKVFFIQACQGDNYQKGIPVETDSEEQPYLEMDLSSPQTRYIPDEADFLLGMATVNNCVSYRNPAEGTWYIQSLCQSLRERCPRGDDILTILTEVNYEVSNKDDKKNMGKQMPQPTFTLRKKLVFPSD [F45A] | disrupting interaction strength

Variants of: B2
Conditions: with andr_human AR

Variant | effect of a mutation on the interaction
MDFSRNLYDIGEQLDSEDLASLKFLSLDYIPQRKQEPIKDALMLFQRLQEKRMLEESNLSFLKELLFRINRLDLLITYLNTRKEEMERELQTPGRAQISAYRVMLYQISEEVSRSELRSFKFLLQEEISKCKLDDDMNLLDIFIEMEKRVILGEGKLDILKRVCAQINKSLLKAANDYEEFSKERSSSLEGSPDEFSNGEELCGVMTISDSPREQDSESQTLDKVYQMKSKPRGYCLIINNHNFAKAREKVPKLHSIRDRNGTHLDAGALTTTFEELHFEIKPHDDCTVEQIYEILKIYQLMDHSNMDCFICCILSHGDKGIIYGTDGQEAPIYELTSQFTGLKCPSLAGKPKVFFIQACQGDNYQKGIPVETDSEEQPYLEMDLSSPQTRYIPDEADFLLGMATVNNCVSYRNPAEGTWYIQSLCQSLRERCPRGDDILTILTEVNYEVSNKDDKKNMGKQMPQPTFTLRKKLVFPSD [I174A;I175A] | disrupting interaction strength
